Patent publication US20120276019

Columns and labels:
[1] = molecular target: recombinant α-synuclein 1-95 (1-95 AA) (GenWay Biotech) (UniProt P37840)
[2] = molecular target: recombinant α-synuclein, full length (1-140 AA) (rPeptide) (UniProt P37840)

Sequence of porcine pancreas derived KLK1 (chain, as listed by the source): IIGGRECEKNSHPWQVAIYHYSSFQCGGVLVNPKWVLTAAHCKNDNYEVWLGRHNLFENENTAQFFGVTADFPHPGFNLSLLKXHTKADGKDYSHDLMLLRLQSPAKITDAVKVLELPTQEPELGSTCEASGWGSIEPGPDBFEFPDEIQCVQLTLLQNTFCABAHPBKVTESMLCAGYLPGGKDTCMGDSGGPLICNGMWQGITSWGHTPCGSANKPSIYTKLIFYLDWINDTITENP

## porcine pancreas derived KLK1
[1]
  degradation (cleavage) of α-synuclein 1-95, Western blot after 3 hours at 37° C., 1 mM KLK1 + 250 µg/ml α-synuclein 1-95: After 3 hours of treatment, all detectable α-synuclein 1-95 was degraded by KLK1
[2]
  degradation (cleavage) of α-synuclein, Western blot after 24 hours at 37° C., 100 nM KLK1 + 2.5 µM α-synuclein: After 24 hours of treatment, all detectable α-synuclein was degraded by KLK1
